Results: article PMC11900867
Read-outs that look alike come from different tables or passages of the source.

What was measured:
[1] = target: Coxsackievirus B3 (CVB3) 3CD protein (uncleaved 3C^pro-3D^pol) with Cys147Ala, Gly55Ala, Asp58Ala, Val63Ala (coxsackievirus B3 (CVB3)); test: mass photometry
[2] = target: Coxsackievirus B3 (CVB3) 3CD protein (uncleaved 3C^pro-3D^pol) with Cys147Ala, Gly55Ala, Asp58Ala, Val63Ala (coxsackievirus B3 (CVB3)); test: mass photometry; remark: listed apart in the source
[3] = target: Coxsackievirus B3 (CVB3) 3C^pro protease, protease-inactive mutant (Cys147Ala) with Gly55Ala, Asp58Ala, Val63Ala (coxsackievirus B3 (CVB3)); test: SEC
[4] = target: Coxsackievirus B3 (CVB3) 3C^pro protease, protease-inactive mutant (Cys147Ala) with Gly55Ala, Asp58Ala, Val63Ala (coxsackievirus B3 (CVB3)); test: mass photometry

Substance | stoichiometry N [1] | percent of total counts in the peak of 3CD dimer with one cloverleaf RNA [2] | stoichiometry N [2] | stoichiometry N [3] | stoichiometry N [4]
Coxsackievirus B3 (CVB3) 3CD protein (uncleaved 3C^pro-3D^pol) with Cys147Ala, Gly55Ala, Asp58Ala, Val63Ala (enzyme) | 2 | 19 to 23% | 2 |  | 
Coxsackievirus B3 (CVB3) 3C^pro protease, protease-inactive mutant (Cys147Ala) with Gly55Ala, Asp58Ala, Val63Ala (enzyme) |  |  |  | 2 | 2
